Biological target: Staphylococcus aureus alpha-hemolysin (Staphylococcus aureus, UniProt P09616)
Sequence (P09616 27-319 limits assumed): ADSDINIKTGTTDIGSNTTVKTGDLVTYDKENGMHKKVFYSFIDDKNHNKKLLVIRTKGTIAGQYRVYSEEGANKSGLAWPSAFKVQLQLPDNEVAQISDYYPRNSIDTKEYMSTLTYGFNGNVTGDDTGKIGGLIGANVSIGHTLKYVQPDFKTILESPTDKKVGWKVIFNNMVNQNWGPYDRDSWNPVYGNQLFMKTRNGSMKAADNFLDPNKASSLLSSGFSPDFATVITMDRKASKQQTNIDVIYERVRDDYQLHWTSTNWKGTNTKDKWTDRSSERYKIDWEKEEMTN

B1: CAN24G4 monoclonal antibody (antibody, V domains shown)
VH: EVHLQQSGAELVKPGASVRLSCTGSGLDIKDTYIHWVKKRPEQGLEWIGRIDPANGITKYDPKFQGKATVTADTSSNTAYLQFSSLTSEDSAVYYCSSEYYPYPMDYWGQGTSVTVSS
VL: DIKMTQPPSSMYASLGERVTVTCKASQDISSFLTWFQQKPGKSPKILIYRANRVVDGVPSRFSGSGSGHDYSLTISSLESEDMGIYYCLQYDEFPWTFGGGTKLEIK
- Kd: 9.4 nM
- koff: 0.004 s⁻¹
- kon: 430000 M⁻¹ s⁻¹
